Earlier results on one substance are cited in PMC9986639.

In this series the target is PAPR (Escherichia coli) (UniProt P17854).
PAPR (Escherichia coli), sequence (P17854 2-244): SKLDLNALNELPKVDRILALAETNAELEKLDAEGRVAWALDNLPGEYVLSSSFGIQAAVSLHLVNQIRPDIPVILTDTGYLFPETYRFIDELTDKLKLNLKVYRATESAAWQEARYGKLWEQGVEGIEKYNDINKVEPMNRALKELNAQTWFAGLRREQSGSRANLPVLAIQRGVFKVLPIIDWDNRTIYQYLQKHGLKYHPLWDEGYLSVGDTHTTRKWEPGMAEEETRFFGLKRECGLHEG

Trx1, sequence (P0AA25 2-109): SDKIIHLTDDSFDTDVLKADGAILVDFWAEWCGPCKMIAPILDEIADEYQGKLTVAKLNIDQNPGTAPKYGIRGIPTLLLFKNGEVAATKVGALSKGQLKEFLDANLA

Trx1 (from UniProt P0AA25): the Kd (as a rule, the equilibrium constant for the complex coming apart) was 110 µM.
